Measured values published in patent US20220411531A1 (SUMGEN MAB BEIJING BIOTECH, published 2022).
Where a chain is given by its changes, count along the chain named. Blank lines part the entries; values can stand above or below the binder they belong to.

Assays:
[1] = target: T1, TYRO3-Fc (ACRO Biosystems) (UniProt Q06418 41-428, limits assumed); assay: ELISA, TYRO3-Fc coated at 1 µg/ml, anti-human IgG Fab-HRP, OD450
T1 construct: Bought reagent; also called TRYO3; not shown: Fc part
T1 sequence (looked up): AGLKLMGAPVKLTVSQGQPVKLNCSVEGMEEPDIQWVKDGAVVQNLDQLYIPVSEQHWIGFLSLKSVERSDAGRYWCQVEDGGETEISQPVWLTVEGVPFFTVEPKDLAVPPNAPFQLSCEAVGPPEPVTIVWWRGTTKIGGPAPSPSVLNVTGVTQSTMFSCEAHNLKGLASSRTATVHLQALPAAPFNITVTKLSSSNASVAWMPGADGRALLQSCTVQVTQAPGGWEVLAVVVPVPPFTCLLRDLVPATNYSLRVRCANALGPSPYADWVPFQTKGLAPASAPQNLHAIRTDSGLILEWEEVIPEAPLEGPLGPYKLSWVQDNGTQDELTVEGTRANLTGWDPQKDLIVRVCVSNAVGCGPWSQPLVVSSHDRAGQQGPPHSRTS
Procedure: AXL, TRYO3, and MER are all members of the TYRO3 receptor tyrosine kinase subfamily. To verify the recognition specificity of the antibodies 6G12M11, 6G12M21, 6G12M31 and 6G12M41, the binding ability of these antibodies to other members of the AXL family is tested by the ELISA method.
(§1) TYRO3-Fc (ACRO Biosystems), MER-His (ACRO Biosystems), and AXL-His (Sino Biological Inc.) each were coated at 1 μg/ml on an ELISA strip, which was held at 4° C. overnight. After the ELISA strips were washed with PBST, 10% fetal bovine serum was added to the ELISA strip, which was blocked for 1 hour at 37° C. Antibodies […], 6G12M21, 6G12M31 and 6G12M41 were added to react at 37° C. for 1 hour. After the ELISA strips were washed with PBST, horseradish peroxidase-labeled goat anti-human IgG Fab secondary antibodies (Goat Anti-Human IgG (Fab′)₂ (HRP), Abcam) were added to react for 30 minutes at 37° C. The ELISA strips were washed 5 times with PBST, and patted and dried on absorbent paper to remove residual droplets as much as possible. 100 μl of TMB (eBioscience, #85-00-420) was added to each well, and the ELISA strips were held for 1.5 min at room temperature (20±5° C.) in the dark. 100 μl of 2N H₂SO₄ stop solution was added to each well to terminate substrate reaction. The OD value was read at 450 nm by a microplate reader to analyze the binding ability of antibodies to the proteins.

[2] = target: T2, AXL-His (Sino Biological Inc., 6x His labels, molecular weight 47.5 Kda) (UniProt P30530-2 26-440, limits assumed); assay: ELISA, AXL-His coated at 1 µg/ml, anti-human IgG Fab-HRP, OD450
T2 construct: Bought reagent; also called target antigen AXL-His; target antigen AXL; not shown: 6x His tag
T2 sequence (looked up): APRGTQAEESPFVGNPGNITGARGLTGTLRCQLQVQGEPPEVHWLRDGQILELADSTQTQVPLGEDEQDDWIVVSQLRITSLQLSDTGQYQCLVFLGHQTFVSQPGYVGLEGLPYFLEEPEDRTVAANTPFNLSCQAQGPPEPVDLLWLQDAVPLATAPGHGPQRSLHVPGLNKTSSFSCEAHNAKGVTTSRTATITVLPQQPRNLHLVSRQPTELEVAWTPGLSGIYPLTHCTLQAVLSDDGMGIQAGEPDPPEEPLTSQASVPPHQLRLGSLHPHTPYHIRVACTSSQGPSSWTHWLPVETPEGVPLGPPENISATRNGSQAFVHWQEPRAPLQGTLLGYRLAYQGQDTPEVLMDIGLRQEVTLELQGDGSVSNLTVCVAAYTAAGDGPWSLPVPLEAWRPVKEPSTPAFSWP
Procedure: as §1

[3] = target: T2, AXL-His (Sino Biological Inc., 6x His …); assay: ELISA, AXL-His coated at 1 ug/ml
Procedure: A target antigen AXL-His (Sino Biological Inc.) was coated at 1 μg/ml on an ELISA strip, which was held at 4° C. overnight. After the ELISA strip was washed with PBST, 10% fetal bovine serum was added to the ELISA strip, which was blocked for 1 hour at 37° C. Different concentrations of antibodies 6G12M11, 6G12M21, 6G12M31 and 6G12M41 were added to react at 37° C. for 1 hour. After the ELISA strip was washed with PBST, a horseradish peroxidase-labeled goat anti-mouse secondary antibody (Goat Anti-mouse IgG HRP, Abcam) was added to react for 30 minutes at 37° C. The ELISA strip was washed 5 times with PBST, and patted and dried on absorbent paper to remove residual droplets as much as possible. 100 μl of TMB (eBioscience) was added to each well, and the ELISA strip was held for 1.5 min at room temperature (20±5° C.) in the dark. 100 μl of 2N H₂SO₄ stop solution was added to each well to terminate substrate reaction. The OD value was read at 450 nm by a microplate reader to analyze the binding ability of each antibody to the target antigen AXL. The amino acid sequence of the heavy chain of antibody 6G12M11 is as set forth in SEQ ID NO: 35, and the amino acid sequence of the light chain of the same is as set forth in SEQ ID NO: 36; the amino acid sequence of the heavy chain of antibody 6G12M21 is as set forth in SEQ ID NO: 37, and the amino acid sequence of the light chain of the same is as set forth in SEQ ID NO: 38; the VH of antibody 6G12M31 is as set forth in SEQ ID NO: 42, and the VL of the same is as set forth in SEQ ID NO: 6; and the VH of antibody 6G12M41 is as set forth in SEQ ID NO: 43, and the VL of the same is as set forth in SEQ ID NO: 6.
It can be seen that both antibodies 6G12M11 and 6G12M21 can specifically recognize the target antigen AXL.

B1: antibody 6G12M31 (antibody, V domains shown)
VH: QVQLVQSGPGLVKPSQSLSLTCSVTGFSISSGYYWNWIRQFPGQKLEWMGYRSYDGSNNYDPSLKNRISITRDTSKNQFFLKLNSVTSEDTATYYCARGWLLHYTMDYWGQGTTVTVSS
VL: DIVMTQSPSSVSVTLGQSASISCRSSRSLLHSNGFTYLYWYLQKPGQSPQLLIYQMSNLASGVPDRFSGSGSGTDFTLKISRVEAEDVGVYYCGQNLELPLTFGGGTKLEIK
- binding result [1]: no binding (tested: about 1 µg/mL)
- EC50 (read off the curve) [2]: ~0.03 µg/mL
- EC50 [3]: 0.0211 µg/mL

B2: antibody 6G12M11 (antibody, human IgG1, kappa, V domains shown)
VH: B1 VH with S23A, D61N
VL: EIVMTQSPSSVSVTLGQSASISCRSSRSLLHSNGFTYLYWYLQKPGQSPQLLIYQMSNLASGVPDRFSGSGSGTDFTLKISRVEAEDVGVYYCGQNLELPLTFGGGTKLEIKR
- EC50 (read off the curve) [2]: ~0.03 µg/mL
- EC50 [3]: 0.027 µg/mL

Results, then the binder that gave them:

- binding result [1]: no binding (tested: about 1 µg/mL)
- EC50 (read off the curve) [2]: ~0.03 µg/mL
- EC50 [3]: 0.0253 µg/mL
B3: antibody 6G12M21 (antibody, human IgG1, kappa, V domains shown)
VH: B1 VH with D61N
VL: B2 VL with E1D

- binding result [1]: no binding (tested: about 1 µg/mL)
- EC50 (read off the curve) [2]: ~0.03 µg/mL
- EC50 [3]: 0.0176 µg/mL
B4: antibody 6G12M41 (antibody, V domains shown)
VH: B1 VH with D61G
VL: B1 VL
